Assay results taken from article PMC12646667, “Defective Notch1 signaling in endothelial cells drives pathogenesis in a mouse model of Adams-Oliver syndrome” (The Journal of Clinical Investigation, 2025).
“And” between values parts separate entries of the source, which are not always exact repeats. Equal values may be shown once. Blank lines part the entries; values can stand above or below the binder they belong to.

Tests used:
RBPJ 53-474, S358R [1] = biological target: T1, RBPJ 53-474, S358R (mouse, UniProt P31266 53-474, S358R); assay: ITC; MicroCal VP-ITC; NOTCH1 peptide or SMT3-SHARP in the syringe (40-100 uM), RBPJ in the cell (4-10 uM); 25 C (298 K); 50 mM sodium phosphate pH 6.5, 150 mM NaCl; 20 injections of 14 uL; 1-site binding model; each of three replicates printed on its own; conditions: both partners purified
T1 construct: RBPJ, mouse, conserved core, residues 53-474, with S358R (analogous to the human AOS variant S332R); AOS-associated human variant placed in the mouse protein; also called RBPJ^S358R (human S332R)
T1 sequence (P31266 53-474 S358R): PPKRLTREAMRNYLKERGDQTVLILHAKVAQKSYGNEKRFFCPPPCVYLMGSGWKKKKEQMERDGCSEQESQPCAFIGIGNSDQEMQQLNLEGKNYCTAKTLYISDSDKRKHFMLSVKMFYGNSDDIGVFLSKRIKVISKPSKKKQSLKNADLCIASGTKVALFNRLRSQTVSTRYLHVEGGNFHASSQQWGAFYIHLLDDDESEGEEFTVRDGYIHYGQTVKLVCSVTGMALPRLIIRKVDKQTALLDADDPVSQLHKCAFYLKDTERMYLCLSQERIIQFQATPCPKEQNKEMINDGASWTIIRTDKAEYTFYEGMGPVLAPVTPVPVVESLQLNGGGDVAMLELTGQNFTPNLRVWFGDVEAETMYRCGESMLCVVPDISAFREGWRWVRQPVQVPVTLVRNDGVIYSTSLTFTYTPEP

[2] = biological target: T2, RBPJ 53-474 (WT mouse RBPJ, conserved core) (mouse, UniProt P31266 53-474); assay: as above; conditions: both partners purified
T2 construct: RBPJ, mouse, conserved core (NTD, BTD, linker, CTD), residues 53-474; PDB 3BRG (RBPJ on DNA) was used for modelling only; also called WT RBPJ
T2 sequence (P31266 53-474): as the sequence (P31266 53-474 S358R) above, with R306S counted along it

RBPJ 53-474, E89G [3] = biological target: T3, RBPJ 53-474, E89G (mouse, UniProt P31266 53-474, E89G); assay: as above; conditions: both partners purified
T3 construct: RBPJ, mouse, conserved core, residues 53-474, with E89G (analogous to the human AOS variant E63G); AOS-associated human variant placed in the mouse protein; also called RBPJ^E89G (human E63G)
T3 sequence (P31266 53-474 E89G): as the sequence (P31266 53-474 S358R) above, with E37G, R306S counted along it

RBPJ 53-474, R91G = biological target: T4, RBPJ 53-474, R91G (mouse, UniProt P31266 53-474, R91G); assay: as above; conditions: both partners purified
T4 construct: RBPJ, mouse, conserved core, residues 53-474, with R91G (analogous to the human AOS variant R65G); AOS-associated human variant placed in the mouse protein; also called RBPJ^R91G (human R65G)
T4 sequence (P31266 53-474 R91G): as the sequence (P31266 53-474 S358R) above, with R39G, R306S counted along it

RBPJ 53-474, K195E [4] = biological target: T5, RBPJ 53-474, K195E (mouse, UniProt P31266 53-474, K195E); assay: as above; conditions: both partners purified
T5 construct: RBPJ, mouse, conserved core, residues 53-474, with K195E (analogous to the human AOS variant K169E); AOS-associated human variant placed in the mouse protein; also called RBPJ^K195E (human K169E)
T5 sequence (P31266 53-474 K195E): as the sequence (P31266 53-474 S358R) above, with K143E, R306S counted along it

RBPJ 53-474, F92V [5] = biological target: T6, RBPJ 53-474, F92V (mouse, UniProt P31266 53-474, F92V); assay: as above; conditions: both partners purified
T6 construct: RBPJ, mouse, conserved core, residues 53-474, with F92V (analogous to the human AOS variant F66V); AOS-associated human variant placed in the mouse protein; also called RBPJ^F92V (human F66V)
T6 sequence (P31266 53-474 F92V): as the sequence (P31266 53-474 S358R) above, with F40V, R306S counted along it

[6] = biological target: T7, mouse RBPJ S358R, conserved core (residues 53-474) (mouse, UniProt P31266 53-474, S358R); assay: ITC; MicroCal VP-ITC, 25 °C, 50 mM sodium phosphate pH 6.5, 150 mM NaCl; ligand (RAM peptide or SMT3-SHARP) in the syringe, RBPJ in the cell: 100 µM into 10 µM (R91G), 50 µM into 5 µM (F92V), 40 µM into 4 µM (S358R); 20 injections of 14 µL; 1-site binding model; mean and SD of triplicates; conditions: both partners purified
T7 construct: RBPJ (Rbpj), mouse, conserved core, residues 53-474, with S358R; Variant found in human AOS patients (human S332R), put into the mouse protein by mutagenesis; also called analogous to human S332R; source: pGEX-6P-1 plasmid, QuikChange mutagenesis
T7 sequence (P31266 53-474 S358R): as the sequence (P31266 53-474 S358R) above

[7] = biological target: T8, mouse RBPJ F92V, conserved core (residues 53-474) (mouse, UniProt P31266 53-474, F92V); assay: as above; conditions: both partners purified
T8 construct: RBPJ (Rbpj), mouse, conserved core, residues 53-474, with F92V; Variant found in human AOS patients (human F66V), put into the mouse protein by mutagenesis; also called analogous to human F66V; source: pGEX-6P-1 plasmid, QuikChange mutagenesis
T8 sequence (P31266 53-474 F92V): as the sequence (P31266 53-474 S358R) above, with F40V, R306S counted along it

RBPJ 53-474, S358R [8] = biological target: T1, RBPJ 53-474, S358R; assay: ITC; MicroCal VP-ITC; NOTCH1 peptide or SMT3-SHARP in the syringe (40-100 uM), RBPJ in the cell (4-10 uM); 25 C (298 K); 50 mM sodium phosphate pH 6.5, 150 mM NaCl; 20 injections of 14 uL; 1-site binding model; each of three replicates printed on its own; conditions: both partners purified; remark: listed apart in the source
[9] = biological target: T2, RBPJ 53-474 (WT mouse RBPJ, conserved …); assay: as above; conditions: both partners purified; remark: listed apart in the source
RBPJ 53-474, E89G [10] = biological target: T3, RBPJ 53-474, E89G; assay: as above; conditions: both partners purified; remark: listed apart in the source
RBPJ 53-474, K195E [11] = biological target: T5, RBPJ 53-474, K195E; assay: as above; conditions: both partners purified; remark: listed apart in the source
RBPJ 53-474, F92V [12] = biological target: T6, RBPJ 53-474, F92V; assay: as above; conditions: both partners purified; remark: listed apart in the source
[13] = biological target: T9, mouse RBPJ R91G, conserved core (residues 53-474) (mouse, UniProt P31266 53-474, R91G); assay: ITC; MicroCal VP-ITC, 25 °C, 50 mM sodium phosphate pH 6.5, 150 mM NaCl; ligand (RAM peptide or SMT3-SHARP) in the syringe, RBPJ in the cell: 100 µM into 10 µM (R91G), 50 µM into 5 µM (F92V), 40 µM into 4 µM (S358R); 20 injections of 14 µL; 1-site binding model; mean and SD of triplicates; conditions: both partners purified
T9 construct: RBPJ (Rbpj), mouse, conserved core, residues 53-474, with R91G; Variant found in human AOS patients (human R65G), put into the mouse protein by mutagenesis; also called analogous to human R65G; source: pGEX-6P-1 plasmid, QuikChange mutagenesis
T9 sequence (P31266 53-474 R91G): as the sequence (P31266 53-474 S358R) above, with R39G, R306S counted along it

RBPJ R91G = RBPJ R91G (Mus musculus, UniProt P31266 53-474, R91G); assay: EMSA; 5, 25, 125 nM protein; ITC: 50 mM sodium phosphate pH 6.5, 150 mM NaCl, 10 C, DNA 100 uM in syringe, protein 10 uM in cell; EMSA: 20 min at room temperature, buffer as previously described (not given); conditions: protein: recombinant; tags: GST-fusion vector pGEX-6P-1; label: 5' IRDye-700 on bottom strand; blunt; S3 primer annealed to S2 and filled in with DNA polymerase I
Sequence of RBPJ R91G (P31266 53-474 R91G): as the sequence (P31266 53-474 S358R) above, with R39G, R306S counted along it

B3: SMT3-MINT 2776-2833 (human SHARP residues 2776-2833 with N-terminal SMT3 and His tag) (domain or fragment, UniProt Q96T58 2776-2833, looked up)
chain: RASANENSRFHPGSMPVIDDRPADAGSGAGLRVNTSEGVVLLSYSGQKTEGPQRISAK
notes: SHARP (MINT), human, residues 2776-2833; not shown: SMT3, N-terminal, kept
Ka (RBPJ 53-474, S358R [8]): 9.83e+07 M⁻¹ and 1.28e+08 M⁻¹ and 1.73e+08 M⁻¹ | Kd (RBPJ 53-474, S358R [8]): 0.01 µM and 0.0078 µM and 0.006 µM | stoichiometry N (RBPJ 53-474, S358R [8]): 0.89 and 1.02 and 1.08 | stoichiometry N [9]: 1.2 and 1 and 1.06 | stoichiometry N (RBPJ 53-474, E89G [10]): 1.37 and 1.34 and 1.15 | Kd (RBPJ 53-474, K195E [11]): 0.012 µM and 0.035 µM and 0.017 µM | stoichiometry N (RBPJ 53-474, K195E [11]): 0.94 and 0.84 and 0.95 | Ka (RBPJ 53-474, F92V [12]): 8.9e+07 M⁻¹ (2×) and 1.2e+08 M⁻¹ | Kd (RBPJ 53-474, F92V [12]): 0.011 µM and 0.0113 µM and 0.009 µM | stoichiometry N (RBPJ 53-474, F92V [12]): 1.17 and 1.09 and 1.12

B4: RBPJ association module (RAM) domain peptide of the human Notch1 intracellular domain, residues 1754-1781 (peptide)
peptide: VLLSRKRRRQHGQLWFPEGFKVSEASKK
notes: NOTCH1, human, RAM domain of the intracellular domain, residues 1754-1781; also called NICD; NICD1; source: synthetic peptide
Kd [6]: 0.0133 µM | Kd [7]: 0.0115 µM | Kd [13]: 0.0214 µM

B5: EMSA probe 1xCSL (1016ic) (dsDNA)
DNA 1: CGAACGAGGCAAACCTAGGCTAGAGGCACCGTGGGAAACTAGTGCGGGCGTGGCT
DNA 2: AGCCACGCCCGCACTAGTTTCCCACGGTGCCTCTAGCCTAGGTTTGCCTCGTTCG
binding result (RBPJ R91G): no binding

Continued, values first:

stoichiometry N (RBPJ 53-474, S358R [1]): 0.86 and 0.72 and 0.77 | Ka [2]: 5e+07 M⁻¹ (2×) and 4.4e+07 M⁻¹ | Kd [2]: 0.02 µM and 0.022 µM | stoichiometry N [2]: 1.21 and 1.2 and 1.14 | Ka (RBPJ 53-474, E89G [3]): 6.24e+07 M⁻¹ and 7.22e+07 M⁻¹ and 3.37e+07 M⁻¹ | Kd (RBPJ 53-474, E89G [3]): 0.016 µM and 0.014 µM and 0.03 µM | stoichiometry N (RBPJ 53-474, E89G [3]): 0.84 and 0.73 and 1.32 | Ka (RBPJ 53-474, R91G): 6.04e+07 M⁻¹ and 6.65e+07 M⁻¹ and 3.08e+07 M⁻¹ | Kd (RBPJ 53-474, R91G): 0.017 µM and 0.015 µM and 0.032 µM | stoichiometry N (RBPJ 53-474, R91G): 1.06 and 1.03 and 0.92 | Ka (RBPJ 53-474, K195E [4]): 7.46e+07 M⁻¹ and 3.08e+07 M⁻¹ and 4.69e+07 M⁻¹ | Kd (RBPJ 53-474, K195E [4]): 0.013 µM and 0.032 µM and 0.021 µM | stoichiometry N (RBPJ 53-474, K195E [4]): 1.33 and 1.2 and 1.23 | Ka (RBPJ 53-474, F92V [5]): 1.42e+08 M⁻¹ and 1.04e+08 M⁻¹ and 5.61e+07 M⁻¹ | Kd (RBPJ 53-474, F92V [5]): 0.007 µM and 0.01 µM and 0.018 µM | stoichiometry N (RBPJ 53-474, F92V [5]): 0.85 and 0.75 and 0.63
B1: human NOTCH1 peptide consisting of residues 1754-1781 (peptide, UniProt P46531 1754-1781, looked up)
peptide: VLLSRKRRRQHGQLWFPEGFKVSEASKK
notes: NOTCH1, human, RAM region, residues 1754-1781; also called hN1 RAM 1754-1781; NICD1

Kd [6]: 0.0079 µM | Kd [7]: 0.0103 µM
B2: SMT3-SHARP 2776-2833, fusion protein with the region of the human SHARP co-repressor that binds RBPJ (domain or fragment, UniProt Q96T58 2776-2833, looked up)
chain: RASANENSRFHPGSMPVIDDRPADAGSGAGLRVNTSEGVVLLSYSGQKTEGPQRISAK
notes: SHARP (SPEN), human, residues 2776-2833; not shown: SMT3, N-terminal, kept
